# Laboratory results published in US6492117, “Zinc finger polypeptides capable of binding DNA quadruplexes” (Gendaq Limited).
# Molecular target: glutathione-S-transferase (UniProt P08515 P08515:1-218)
# Test: EMSA; GST alone control
# Conditions: tags: GST (pGEX-3X, Amersham-Pharmacia); label: 5'-32P; G4, antiparallel intramolecular
# Protocol: Binding reactions are performed in a final volume of 10 µl, using 10 fmol of labelled oligonucleotide and various amounts of purified Gq1* in binding buffer: 20 mM Tris-HCl pH 7.5, 1 mM EDTA, 1 mM DTT, 6% glycerol, 100 µg/ml BSA, 1 µg/ml calf thymus DNA, 50 µM ZnCl_2 and KCl to 150 mM. Binding reactions are carried out at room temperature for 1 hour. The samples are loaded on a 8% polyacrylamide (acrylamide:bisacrylamide=33:1) non-denaturing gel. The buffer in the gel and for electrophoresis is 0.5 X TB buffer (Sambrook, J., Fritsch, E. F., & Maniatis, T. (1989) in Molecular Cloning, A Laboratory Manual, Cold Spring Harbor Laboratory Press, Cold Spring Harbor.). Electrophoresis is performed at 15 V/cm, for 2 hours, at 4° C. […] The bands are quantified using Imagequant software. The fraction of DNA that is bound and free is determined after normalization by summing the total number of counts in each lane (Senear D F, Brenowitz M (1991) J Biol Chem Jul 25;266(21):13661–71). To minimise any error due to perturbation of the equilibrium under electrophoretic conditions, the fraction of free DNA is measured at various protein concentrations rather than measuring the amount of complex formed (Cann J R (1989) J Biol Chem Oct 15;264(29):17032–40; Garner M M, Revzin A (1981) Nucleic Acids Res Jul 10;9(13):3047–60). […]
# Chain of glutathione-S-transferase (P08515 whole entry, one chain of several): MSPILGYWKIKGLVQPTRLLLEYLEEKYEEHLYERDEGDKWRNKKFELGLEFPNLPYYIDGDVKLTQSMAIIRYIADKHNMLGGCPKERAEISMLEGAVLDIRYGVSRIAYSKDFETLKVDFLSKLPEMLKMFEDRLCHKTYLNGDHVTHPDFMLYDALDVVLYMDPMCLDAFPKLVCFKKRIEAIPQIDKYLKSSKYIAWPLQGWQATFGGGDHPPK
binder,measurement,value
GGTTAGGGTTAGGGTTAGGGTTAGGGTTAG (structured_DNA) [Htelo],binding result,no binding
